Results taken from patent publication US20150125431A1 (ZEALAND PHARMA A S, published 2015).
Non-standard residues stand in square brackets, D forms with d. Aib = CC(C)(N)C(=O)O

T1: human GLP-2 receptor (hGLP2-R), splice variant rs17681684 (human, UniProt O95838 1-553)
T1 sequence (looked up): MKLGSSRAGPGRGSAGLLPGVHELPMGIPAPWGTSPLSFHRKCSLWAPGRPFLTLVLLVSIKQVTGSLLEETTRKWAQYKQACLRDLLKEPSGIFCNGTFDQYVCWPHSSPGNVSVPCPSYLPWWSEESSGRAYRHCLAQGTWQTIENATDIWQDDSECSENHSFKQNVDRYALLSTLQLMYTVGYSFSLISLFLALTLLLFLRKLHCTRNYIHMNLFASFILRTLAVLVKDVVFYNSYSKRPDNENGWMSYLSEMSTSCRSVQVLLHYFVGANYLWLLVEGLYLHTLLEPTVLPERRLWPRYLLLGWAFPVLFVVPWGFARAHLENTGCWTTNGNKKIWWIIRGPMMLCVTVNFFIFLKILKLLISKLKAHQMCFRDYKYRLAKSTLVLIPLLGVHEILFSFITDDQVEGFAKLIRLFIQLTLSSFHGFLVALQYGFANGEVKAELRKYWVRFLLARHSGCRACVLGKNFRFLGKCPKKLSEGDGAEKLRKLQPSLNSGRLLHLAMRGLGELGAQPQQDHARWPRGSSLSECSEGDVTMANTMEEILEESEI


Experiments:
Experiment in all cases: cell-based or functional assay
[1] = target: human GLP-2 receptor (hGLP2-R), splice variant rs17681684 (human) (UniProt O95838)
[2] = target: human glucagon-like peptide 1 receptor (GLP-1R) (human, UniProt P43220 24-463)
[3] = target: T1, human GLP-2 receptor (hGLP2-R), splice …

Molecule | GLP-2R EC50 (nM), cAMP AlphaScreen on HEK293 cells expressing the receptor [1] [nM] | GLP-1R EC50 (nM), cAMP AlphaScreen on HEK293 cells expressing the receptor [2] [nM] | GLP-2R EC50 (nM), cAMP AlphaScreen on HEK293 cells expressing the receptor [3] [nM]
GLP-1 (from UniProt P01275 98-127) (peptide) | > 1000 | – | –
H-HGDGSFSSELATILDGQAARDFIAWLIQTKITD-OH [Compound 11: Hy-HGDGSFSSELATILDGQAARDFIAWLIQTKITD-OH] | – | 0.34 | 0.2
H-HGDGSFSSEMNTILDSQAARDFINWLIQTKITD-OH [Compound 4: Hy-HGDGSFSSEMNTILDSQAARDFINWLIQTKITD-OH] | – | 25 | 0.06
H-HGDGSFSDEMNTILDNKAARDFINWLIQTKITD-OH [Compound 2: Hy-HGDGSFSDEMNTILDNKAARDFINWLIQTKITD-OH] | – | 77 | 0.02
H-H[Aib]DGSFSDEMNTILDNQAARDFINWLIQTKITD-OH (SMILES CC[C@H](C)[C@H](NC(=O)[C@H](Cc1ccccc1)NC(=O)[C@H](CC(=O)O)NC(=O)[C@H](CCCNC(=N)N)NC(=O)[C@H](C)NC(=O)[C@H](C)NC(=O)[C@H](CCC(N)=O)NC(=O)[C@H](CC(N)=O)NC(=O)[C@H](CC(=O)O)NC(=O)[C@H](CC(C)C)NC(=O)[C@@H](NC(=O)[C@@H](NC(=O)[C@H](CC(N)=O)NC(=O)[C@H](CCSC)NC(=O)[C@H](CCC(=O)O)NC(=O)[C@H](CC(=O)O)NC(=O)[C@H](CO)NC(=O)[C@H](Cc1ccccc1)NC(=O)[C@H](CO)NC(=O)CNC(=O)[C@H](CC(=O)O)NC(=O)C(C)(C)NC(=O)[C@@H](N)Cc1c[nH]cn1)[C@@H](C)O)[C@@H](C)CC)C(=O)N[C@@H](CC(N)=O)C(=O)N[C@@H](Cc1c[nH]c2ccccc12)C(=O)N[C@@H](CC(C)C)C(=O)N[C@H](C(=O)N[C@@H](CCC(N)=O)C(=O)N[C@H](C(=O)N[C@@H](CCCCN)C(=O)N[C@H](C(=O)N[C@H](C(=O)N[C@@H](CC(=O)O)C(=O)O)[C@@H](C)O)[C@@H](C)CC)[C@@H](C)O)[C@@H](C)CC) [Compound 1: Hy-H-Aib-DGSFSDEMNTILDNQAARDFINWLIQTKITD-OH] | – | 44 | 0.12
H-HGEGTFTSDLSKQMEGQAVRDFIEWLIQTKITD-OH [Compound 5: Hy-HGEGTFTSDLSKQMEGQAVRDFIEWLIQTKITD-OH] | – | 1 | 0.2
H-HGDGSFSSELATILDGKAARDFINWLIQTKITD-OH [Compound 7: Hy-HGDGSFSSELATILDGKAARDFINWLIQTKITD-OH] | – | 0.78 | 0.2
H-HGEGTFTSDLSKQMESKAARDFIEWLIQTKITD-OH [Compound 6: Hy-HGEGTFTSDLSKQMESKAARDFIEWLIQTKITD-OH] | – | 1.1 | –
H-HGEGSFSSDLSTILENKAARDFIEWLIQTKITD-OH [Compound 9: Hy-HGEGSFSSDLSTILENKAARDFIEWLIQTKITD-OH] | – | 9.1 | 0.2
H-HGEGTFTSDLSTILENKAARDFIEWLIQTKITD-OH [Compound 8: Hy-HGEGTFTSDLSTILENKAARDFIEWLIQTKITD-OH] | – | 16 | 0.008
H-H[Aib]DGSFSDELNTILDGKAARDFINWLIQTK-NH2 (SMILES CC[C@H](C)[C@H](NC(=O)[C@H](Cc1ccccc1)NC(=O)[C@H](CC(=O)O)NC(=O)[C@H](CCCNC(=N)N)NC(=O)[C@H](C)NC(=O)[C@H](C)NC(=O)[C@H](CCCCN)NC(=O)CNC(=O)[C@H](CC(=O)O)NC(=O)[C@H](CC(C)C)NC(=O)[C@@H](NC(=O)[C@@H](NC(=O)[C@H](CC(N)=O)NC(=O)[C@H](CC(C)C)NC(=O)[C@H](CCC(=O)O)NC(=O)[C@H](CC(=O)O)NC(=O)[C@H](CO)NC(=O)[C@H](Cc1ccccc1)NC(=O)[C@H](CO)NC(=O)CNC(=O)[C@H](CC(=O)O)NC(=O)C(C)(C)NC(=O)[C@@H](N)Cc1c[nH]cn1)[C@@H](C)O)[C@@H](C)CC)C(=O)N[C@@H](CC(N)=O)C(=O)N[C@@H](Cc1c[nH]c2ccccc12)C(=O)N[C@@H](CC(C)C)C(=O)N[C@H](C(=O)N[C@@H](CCC(N)=O)C(=O)N[C@H](C(=O)N[C@@H](CCCCN)C(N)=O)[C@@H](C)O)[C@@H](C)CC) [Compound 10: Hy-H-Aib-DGSFSDELNTILDGKAARDFINWLIQTK-NH2] | – | 0.03 | 3.9
H-HGEGSFSSDLSTILEGKAARDFIEWLIQTKITD-OH [Compound 13: Hy-HGEGSFSSDLSTILEGKAARDFIEWLIQTKITD-OH] | – | 18 | 0.1
